Measurements reported in US20250388666A1 (BRIGHAM AND WOMEN S HOSPITAL, published 2025).

T1: CEACAM1 (Sino Biological) (human, UniProt P13688 35-428, limits assumed)
T1 construct: may be the same as CEACAM1-HIS; also called hCEACAM1; biotinylated soluble CEACAM1
T1 sequence: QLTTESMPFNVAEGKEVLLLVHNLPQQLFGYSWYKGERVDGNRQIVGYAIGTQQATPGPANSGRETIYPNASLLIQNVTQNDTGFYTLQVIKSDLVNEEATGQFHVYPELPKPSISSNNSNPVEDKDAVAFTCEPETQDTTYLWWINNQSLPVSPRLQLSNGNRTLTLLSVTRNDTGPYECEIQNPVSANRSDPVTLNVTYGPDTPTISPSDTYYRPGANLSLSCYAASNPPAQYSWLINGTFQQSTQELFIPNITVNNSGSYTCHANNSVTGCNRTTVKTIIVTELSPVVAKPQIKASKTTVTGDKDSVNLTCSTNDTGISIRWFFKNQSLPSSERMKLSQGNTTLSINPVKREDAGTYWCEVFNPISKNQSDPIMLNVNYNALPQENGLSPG


These binders were tested against T1, CEACAM1 (Sino Biological) (assay: SPR single-cycle).
Procedure: To assess the binding of the humanized affinity matured IgGs, single cycle kinetics analysis was performed on crude supernatants using a Biacore T200 running Biacore T200 Control Software V2.0.1 and Biacore T200 Evaluation Software V3.0 (Uppsala, Sweden). Antibodies were diluted in HBS-P+ (GE Healthcare) to a final concentration of […]. At the start of each cycle, antibodies were loaded onto Fc2, Fc3 and Fc4 of the Protein A chip (GE Healthcare). IgGs were captured at a flow rate of 10 μl/min to give an immobilization level (RL) of ˜100 RU (a level calculated to obtain an Rmax of ˜50-150 RU once the analyte is bound). The surface was then allowed to stabilize. Single cycle kinetics data was obtained with CEACAM1 as the analyte at a flow rate of […] to minimize any potential mass transfer effects. Multiple repeats with the parent (VH2 N56Q/Vκ4 S27(f)A) antibody were performed to check the stability of the surface and analyte over the kinetic cycles. The signal from the reference channel Fc1 (no antibody) was subtracted from that of Fc2, Fc3 and Fc4 to correct for differences in non-specific binding to the reference surface. A three point, two-fold dilution range from 25 nM to 100 nM CEACAM 1 without regeneration between each concentration was used. The signal from each antibody blank run (no CEACAM1) was subtracted to correct for differences in surface stability. The association phase for the three injections of increasing concentrations of CEACAM1 was monitored for 200 seconds each time and a single dissociation phase was measured for 300 seconds following the last injection of CEACAM1. Regeneration of the Protein A surface was conducted using two injections of 10 mM glycine-HCL pH 1.5 followed by a stabilization period of 240 seconds.

| Binder | Kd [nM] | fold better than Parent (KD) [fold] |
| --- | --- | --- |
| Parent VH/L16 (antibody, IgG4, V domains shown, IgG4 S241P, kappa) VH: EVQLLESGGGLVQPGGSLRLSCAASGFSFSDYYLYWVRQAPGKGLEWVATISVGGGQTSYADSVKGRFTISRDNSKNTLYLQMNSLRAEDTAMYYCTRGLYYGPAWFAYWGQGTLVTVSS VL: DIVMTQSPDSLAVSLGERATINCKSSQSLLNSANQKNYLAWYQQKPGQPPKLLIYFASTRESGVPDRFSGSGSGTDFTLTISSLQAEDVAVYYCQSHYPYPFTFGGGTKVEIK | 61 | 2.62 |
| He1/L3 (antibody, IgG4, V domains shown, IgG4 S241P, kappa) VH: EVQLLESGGGLVQPGGSLRLSCAASGFSFSDYYLYWVRQAPGKGLEWVATISVGGGQTSYADSVKGRFTISRDNSKNTLYLQMNSLRAEDTAMYYCTRGLYYGPSWFAYWGQGTLVTVSS VL: DIVMTQSPDSLAVSLGERATINCKSSQSLLNSANQKNYLAWYQQKPGQPPKLLIYFASTRESGVPDRFSGSGSGTDFTLTISSLQAEDVAVYYCQSHFPFPFTFGGGTKVEIK | 263 | 2.1 |
| He1/L2 (antibody, IgG4, V domains shown, IgG4 S241P, kappa) VH: EVQLLESGGGLVQPGGSLRLSCAASGFSFSDYYLYWVRQAPGKGLEWVATISVGGGQTSYADSVKGRFTISRDNSKNTLYLQMNSLRAEDTAMYYCTRGLYYGPSWFAYWGQGTLVTVSS VL: DIVMTQSPDSLAVSLGERATINCKSSQSLLNSANQKNYLAWYQQKPGQPPKLLIYFASTRESGVPDRFSGSGSGTDFTLTISSLQAEDVAVYYCQSHYPFPYTFGGGTKVEIK | 487 | 1.13 |
| He1/L5 (antibody, IgG4, V domains shown, IgG4 S241P, kappa) VH: EVQLLESGGGLVQPGGSLRLSCAASGFSFSDYYLYWVRQAPGKGLEWVATISVGGGQTSYADSVKGRFTISRDNSKNTLYLQMNSLRAEDTAMYYCTRGLYYGPSWFAYWGQGTLVTVSS VL: DIVMTQSPDSLAVSLGERATINCKSSQSLLNSANQKNYLAWYQQKPGQPPKLLIYFASTRESGVPDRFSGSGSGTDFTLTISSLQAEDVAVYYCQSHYPFAFTFGGGTKVEIK | 307 | 1.8 |
| He1/L6 (antibody, IgG4, V domains shown, IgG4 S241P, kappa) VH: EVQLLESGGGLVQPGGSLRLSCAASGFSFSDYYLYWVRQAPGKGLEWVATISVGGGQTSYADSVKGRFTISRDNSKNTLYLQMNSLRAEDTAMYYCTRGLYYGPSWFAYWGQGTLVTVSS VL: DIVMTQSPDSLAVSLGERATINCKSSQSLLNSANQKNYLAWYQQKPGQPPKLLIYFASTRESGVPDRFSGSGSGTDFTLTISSLQAEDVAVYYCQSHYPFSFTFGGGTKVEIK | 402 | 1.37 |
| He1/L17 (antibody, IgG4, V domains shown, IgG4 S241P, kappa) VH: EVQLLESGGGLVQPGGSLRLSCAASGFSFSDYYLYWVRQAPGKGLEWVATISVGGGQTSYADSVKGRFTISRDNSKNTLYLQMNSLRAEDTAMYYCTRGLYYGPSWFAYWGQGTLVTVSS VL: DIVMTQSPDSLAVSLGERATINCKSSQSLLNSANQKNYLAWYQQKPGQPPKLLIYFASTRESGVPDRFSGSGSGTDFTLTISSLQAEDVAVYYCQSHYPYPYTFGGGTKVEIK | 374 | 1.47 |
| He1/L16 (antibody, IgG4, V domains shown, IgG4 S241P, kappa) VH: EVQLLESGGGLVQPGGSLRLSCAASGFSFSDYYLYWVRQAPGKGLEWVATISVGGGQTSYADSVKGRFTISRDNSKNTLYLQMNSLRAEDTAMYYCTRGLYYGPSWFAYWGQGTLVTVSS VL: DIVMTQSPDSLAVSLGERATINCKSSQSLLNSANQKNYLAWYQQKPGQPPKLLIYFASTRESGVPDRFSGSGSGTDFTLTISSLQAEDVAVYYCQSHYPYPFTFGGGTKVEIK | 341 | 1.62 |
| He1/L1 (antibody, IgG4, V domains shown, IgG4 S241P, kappa) VH: EVQLLESGGGLVQPGGSLRLSCAASGFSFSDYYLYWVRQAPGKGLEWVATISVGGGQTSYADSVKGRFTISRDNSKNTLYLQMNSLRAEDTAMYYCTRGLYYGPSWFAYWGQGTLVTVSS VL: DIVMTQSPDSLAVSLGERATINCKSSQSLLNSANQKNYLAWYQQKPGQPPKLLIYFASTRESGVPDRFSGSGSGTDFTLTISSLQAEDVAVYYCQSHYPFYYTFGGGTKVEIK | 568 | 0.97 |
| He1/L4#2 (antibody, IgG4, V domains shown, IgG4 S241P, kappa) VH: EVQLLESGGGLVQPGGSLRLSCAASGFSFSDYYLYWVRQAPGKGLEWVATISVGGGQTSYADSVKGRFTISRDNSKNTLYLQMNSLRAEDTAMYYCTRGLYYGPSWFAYWGQGTLVTVSS VL: DIVMTQSPDSLAVSLGERATINCKSSQSLLNSANQKNYLAWYQQKPGQPPKLLIYFASTRESGVPDRFSGSGSGTDFTLTISSLQAEDVAVYYCQSHYPYPYTFGGGTKVEIK | 301 | 1.83 |
| He1/L4 #1 (antibody, IgG4, V domains shown, IgG4 S241P, kappa) VH: EVQLLESGGGLVQPGGSLRLSCAASGFSFSDYYLYWVRQAPGKGLEWVATISVGGGQTSYADSVKGRFTISRDNSKNTLYLQMNSLRAEDTAMYYCTRGLYYGPSWFAYWGQGTLVTVSS VL: DIVMTQSPDSLAVSLGERATINCKSSQSLLNSANQKNYLAWYQQKPGQPPKLLIYFASTRESGVPDRFSGSGSGTDFTLTISSLQAEDVAVYYCQSHFPYYYTFGGGTKVEIK | 429 | 1.28 |

The next lines start with the values.

| Kd [nM] | fold better than Parent (KD) [fold] | Binder |
| --- | --- | --- |
| 62 | 2.57 | He3/L1 (antibody, IgG4, V domains shown, IgG4 S241P, kappa) VH: EVQLLESGGGLVQPGGSLRLSCAASGFSFSDYYLYWVRQAPGKGLEWVATISVGGGQTSYADSVKGRFTISRDNSKNTLYLQMNSLRAEDTAMYYCTRALTYGPAWLAYWGQGTLVTVSS VL: DIVMTQSPDSLAVSLGERATINCKSSQSLLNSANQKNYLAWYQQKPGQPPKLLIYFASTRESGVPDRFSGSGSGTDFTLTISSLQAEDVAVYYCQSHYPFYYTFGGGTKVEIK |
| 163 | 0.98 | He3/L3 (antibody, IgG4, V domains shown, IgG4 S241P, kappa) VH: EVQLLESGGGLVQPGGSLRLSCAASGFSFSDYYLYWVRQAPGKGLEWVATISVGGGQTSYADSVKGRFTISRDNSKNTLYLQMNSLRAEDTAMYYCTRALTYGPAWLAYWGQGTLVTVSS VL: DIVMTQSPDSLAVSLGERATINCKSSQSLLNSANQKNYLAWYQQKPGQPPKLLIYFASTRESGVPDRFSGSGSGTDFTLTISSLQAEDVAVYYCQSHFPFPFTFGGGTKVEIK |
| 86 | 1.85 | He3/L2 (antibody, IgG4, V domains shown, IgG4 S241P, kappa) VH: EVQLLESGGGLVQPGGSLRLSCAASGFSFSDYYLYWVRQAPGKGLEWVATISVGGGQTSYADSVKGRFTISRDNSKNTLYLQMNSLRAEDTAMYYCTRALTYGPAWLAYWGQGTLVTVSS VL: DIVMTQSPDSLAVSLGERATINCKSSQSLLNSANQKNYLAWYQQKPGQPPKLLIYFASTRESGVPDRFSGSGSGTDFTLTISSLQAEDVAVYYCQSHYPFPYTFGGGTKVEIK |
| 264 | 2.09 | He1/L20 (antibody, IgG4, V domains shown, IgG4 S241P, kappa) VH: EVQLLESGGGLVQPGGSLRLSCAASGFSFSDYYLYWVRQAPGKGLEWVATISVGGGQTSYADSVKGRFTISRDNSKNTLYLQMNSLRAEDTAMYYCTRGLYYGPSWFAYWGQGTLVTVSS VL: DIVMTQSPDSLAVSLGERATINCKSSQSLLNSANQKNYLAWYQQKPGQPPKLLIYFASTRESGVPDRFSGSGSGTDFTLTISSLQAEDVAVYYCQSHFPYPLTFGGGTKVEIK |
| 544 | 1.01 | He1/Parent VL (antibody, IgG4, V domains shown, IgG4 S241P, kappa) VH: EVQLLESGGGLVQPGGSLRLSCAASGFSFSDYYLYWVRQAPGKGLEWVATISVGGGQTSYADSVKGRFTISRDNSKNTLYLQMNSLRAEDTAMYYCTRGLYYGPSWFAYWGQGTLVTVSS VL: not shown |
| 326 | 1.69 | He1/L18 (antibody, IgG4, V domains shown, IgG4 S241P, kappa) VH: EVQLLESGGGLVQPGGSLRLSCAASGFSFSDYYLYWVRQAPGKGLEWVATISVGGGQTSYADSVKGRFTISRDNSKNTLYLQMNSLRAEDTAMYYCTRGLYYGPSWFAYWGQGTLVTVSS VL: DIVMTQSPDSLAVSLGERATINCKSSQSLLNSANQKNYLAWYQQKPGQPPKLLIYFASTRESGVPDRFSGSGSGTDFTLTISSLQAEDVAVYYCQSHFPYPFTFGGGTKVEIK |
| 996 | 0.55 | He1/L19 (antibody, IgG4, V domains shown, IgG4 S241P, kappa) VH: EVQLLESGGGLVQPGGSLRLSCAASGFSFSDYYLYWVRQAPGKGLEWVATISVGGGQTSYADSVKGRFTISRDNSKNTLYLQMNSLRAEDTAMYYCTRGLYYGPSWFAYWGQGTLVTVSS VL: DIVMTQSPDSLAVSLGERATINCKSSQSLLNSANQKNYLAWYQQKPGQPPKLLIYFASTRESGVPDRFSGSGSGTDFTLTISSLQAEDVAVYYCQSHIYPNFTFGGGTKVEIK |
